In the supplement of paper PMC10065799, “High-throughput profiling of sequence recognition by tyrosine kinases and SH2 domains using bacterial peptide display” (eLife, 2023):

Key:
c-Src SH2 = assay: SH2 binding enrichment of the phosphorylated peptide, bacterial display (enrichment ratio); higher = better substrate or ligand; peptides without Tyr show the background
SHP2-C SH2 = assay: as above
Grb2 SH2 = Grb2 SH2 (UniProt P62993); assay: as above
Fyn = Fyn (UniProt P06241); assay: phosphorylation enrichment, bacterial display (enrichment ratio); higher = better substrate or ligand; peptides without Tyr show the background
c-Src = assay: as above
MERTK = MERTK (UniProt Q12866); assay: as above
Fes = Fes (UniProt P07332); assay: as above
Jak2 = Jak2 (UniProt O60674); assay: as above
c-Abl (mouse) = assay: as above
EPHB2 = EPHB2 (UniProt P29323); assay: as above
FGFR3 = FGFR3 (UniProt P22607); assay: as above
FGFR1 = FGFR1 (UniProt P11362); assay: as above
Hck = Hck (UniProt P08631); assay: as above
Fer (mouse) = assay: as above
AncSZ = assay: as above
EPHB1 = EPHB1 (UniProt P54762); assay: as above
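Wherever SH2 binding enrichment of the phosphorylated peptide, bacterial display is given: peptide library displayed on the E. coli surface as eCPX fusions, selected cells deep-sequenced, score is each peptide's frequency after selection divided by its frequency in the input.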
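Wherever phosphorylation enrichment, bacterial display is given: 11-residue human phosphosite peptides and single-mutation variants displayed on the E. coli surface, counted by deep sequencing, each peptide's frequency after selection divided by its frequency in the unselected input library; frequency after pTyr selection over input frequency; kinase dosed for 20-30% of maximal phosphorylation in three min.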

Jak2, sequence (O60674 whole entry, looked up): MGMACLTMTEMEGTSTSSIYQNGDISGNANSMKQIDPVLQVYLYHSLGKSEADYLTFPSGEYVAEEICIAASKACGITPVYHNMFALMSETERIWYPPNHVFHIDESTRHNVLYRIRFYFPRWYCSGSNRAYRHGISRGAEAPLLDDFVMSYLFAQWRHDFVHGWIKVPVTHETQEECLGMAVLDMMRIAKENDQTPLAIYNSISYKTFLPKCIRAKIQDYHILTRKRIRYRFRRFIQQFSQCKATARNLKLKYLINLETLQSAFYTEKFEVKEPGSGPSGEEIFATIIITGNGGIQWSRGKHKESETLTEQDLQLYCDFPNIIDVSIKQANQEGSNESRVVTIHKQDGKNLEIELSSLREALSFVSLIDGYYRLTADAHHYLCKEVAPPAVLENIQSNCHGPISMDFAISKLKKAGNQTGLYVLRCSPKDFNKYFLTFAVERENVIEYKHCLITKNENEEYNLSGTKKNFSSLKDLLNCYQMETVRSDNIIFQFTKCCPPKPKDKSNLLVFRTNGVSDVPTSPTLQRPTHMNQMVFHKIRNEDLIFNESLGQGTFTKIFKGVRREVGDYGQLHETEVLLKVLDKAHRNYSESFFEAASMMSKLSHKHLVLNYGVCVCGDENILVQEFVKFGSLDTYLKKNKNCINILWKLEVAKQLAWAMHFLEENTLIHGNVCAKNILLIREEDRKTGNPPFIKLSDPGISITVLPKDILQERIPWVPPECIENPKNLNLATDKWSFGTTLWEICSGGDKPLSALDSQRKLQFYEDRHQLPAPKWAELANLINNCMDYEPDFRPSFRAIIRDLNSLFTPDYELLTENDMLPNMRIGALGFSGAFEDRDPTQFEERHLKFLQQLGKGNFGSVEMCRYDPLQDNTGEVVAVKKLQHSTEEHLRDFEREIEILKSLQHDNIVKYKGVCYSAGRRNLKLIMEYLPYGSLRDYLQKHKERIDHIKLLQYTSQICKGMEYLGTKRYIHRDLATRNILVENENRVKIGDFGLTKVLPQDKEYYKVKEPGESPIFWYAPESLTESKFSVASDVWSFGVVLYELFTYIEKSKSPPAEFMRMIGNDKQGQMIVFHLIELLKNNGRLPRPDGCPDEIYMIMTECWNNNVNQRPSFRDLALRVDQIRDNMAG
MERTK, sequence (Q12866 whole entry, looked up): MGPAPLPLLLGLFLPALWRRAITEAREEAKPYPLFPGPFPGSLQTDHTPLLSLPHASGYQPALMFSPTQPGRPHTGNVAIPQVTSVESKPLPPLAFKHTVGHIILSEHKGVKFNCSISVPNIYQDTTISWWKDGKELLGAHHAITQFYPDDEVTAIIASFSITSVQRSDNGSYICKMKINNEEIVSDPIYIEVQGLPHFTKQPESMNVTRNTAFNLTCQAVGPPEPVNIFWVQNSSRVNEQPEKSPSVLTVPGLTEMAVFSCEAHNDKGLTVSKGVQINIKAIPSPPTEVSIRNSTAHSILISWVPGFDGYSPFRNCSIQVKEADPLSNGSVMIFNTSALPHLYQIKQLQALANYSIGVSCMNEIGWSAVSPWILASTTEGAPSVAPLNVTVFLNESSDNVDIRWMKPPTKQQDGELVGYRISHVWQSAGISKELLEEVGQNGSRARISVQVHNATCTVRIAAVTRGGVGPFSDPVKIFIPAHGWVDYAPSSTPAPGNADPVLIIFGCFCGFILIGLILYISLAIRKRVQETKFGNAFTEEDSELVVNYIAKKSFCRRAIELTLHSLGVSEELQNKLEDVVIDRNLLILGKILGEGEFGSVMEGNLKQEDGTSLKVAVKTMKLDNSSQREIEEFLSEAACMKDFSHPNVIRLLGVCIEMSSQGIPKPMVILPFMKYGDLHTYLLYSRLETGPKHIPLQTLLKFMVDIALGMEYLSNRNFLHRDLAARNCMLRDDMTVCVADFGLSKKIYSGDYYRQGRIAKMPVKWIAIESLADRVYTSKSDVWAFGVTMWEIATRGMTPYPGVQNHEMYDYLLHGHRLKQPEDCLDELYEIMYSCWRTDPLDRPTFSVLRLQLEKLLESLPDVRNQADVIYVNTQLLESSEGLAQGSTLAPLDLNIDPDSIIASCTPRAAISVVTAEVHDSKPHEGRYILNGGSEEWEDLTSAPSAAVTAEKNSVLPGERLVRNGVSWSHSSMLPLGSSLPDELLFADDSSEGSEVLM
Hck, sequence (P08631 whole entry, looked up): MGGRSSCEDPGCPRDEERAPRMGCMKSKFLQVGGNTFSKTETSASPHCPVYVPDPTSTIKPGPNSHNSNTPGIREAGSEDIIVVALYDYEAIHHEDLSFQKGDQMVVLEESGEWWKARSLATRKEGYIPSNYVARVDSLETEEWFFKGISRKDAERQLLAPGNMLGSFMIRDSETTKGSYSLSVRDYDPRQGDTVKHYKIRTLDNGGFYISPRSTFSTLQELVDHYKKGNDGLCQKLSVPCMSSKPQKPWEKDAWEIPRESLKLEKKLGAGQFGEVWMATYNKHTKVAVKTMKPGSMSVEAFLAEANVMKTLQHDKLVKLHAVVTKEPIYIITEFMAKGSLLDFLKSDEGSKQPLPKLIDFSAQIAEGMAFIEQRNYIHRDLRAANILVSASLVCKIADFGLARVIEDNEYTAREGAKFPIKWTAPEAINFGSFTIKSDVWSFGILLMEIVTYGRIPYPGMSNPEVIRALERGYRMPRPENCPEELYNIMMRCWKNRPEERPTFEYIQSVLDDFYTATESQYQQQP
Fes, sequence (P07332 whole entry, looked up): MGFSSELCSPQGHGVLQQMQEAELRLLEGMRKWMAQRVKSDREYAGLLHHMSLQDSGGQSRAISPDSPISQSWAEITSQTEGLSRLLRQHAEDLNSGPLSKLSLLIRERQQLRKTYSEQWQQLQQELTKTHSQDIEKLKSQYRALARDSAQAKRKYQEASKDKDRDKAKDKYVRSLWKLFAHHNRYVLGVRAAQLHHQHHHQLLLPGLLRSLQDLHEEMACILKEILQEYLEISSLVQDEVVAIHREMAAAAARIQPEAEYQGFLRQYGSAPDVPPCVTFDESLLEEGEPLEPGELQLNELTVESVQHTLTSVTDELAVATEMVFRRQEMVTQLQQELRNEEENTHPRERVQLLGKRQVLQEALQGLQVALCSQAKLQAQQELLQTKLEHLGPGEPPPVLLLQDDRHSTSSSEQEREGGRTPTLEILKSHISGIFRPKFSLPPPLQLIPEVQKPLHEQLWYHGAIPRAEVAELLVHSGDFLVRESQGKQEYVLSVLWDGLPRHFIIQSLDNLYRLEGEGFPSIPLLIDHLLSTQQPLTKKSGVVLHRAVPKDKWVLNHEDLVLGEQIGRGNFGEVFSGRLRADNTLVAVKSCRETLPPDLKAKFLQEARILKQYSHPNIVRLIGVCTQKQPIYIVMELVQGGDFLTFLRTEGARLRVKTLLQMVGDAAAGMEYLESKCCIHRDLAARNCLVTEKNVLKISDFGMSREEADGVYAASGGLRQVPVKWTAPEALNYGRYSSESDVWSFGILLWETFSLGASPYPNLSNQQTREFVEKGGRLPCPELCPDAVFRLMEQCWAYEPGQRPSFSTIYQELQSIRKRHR
EPHB1, sequence (P54762 whole entry, looked up, the tested form may be a part): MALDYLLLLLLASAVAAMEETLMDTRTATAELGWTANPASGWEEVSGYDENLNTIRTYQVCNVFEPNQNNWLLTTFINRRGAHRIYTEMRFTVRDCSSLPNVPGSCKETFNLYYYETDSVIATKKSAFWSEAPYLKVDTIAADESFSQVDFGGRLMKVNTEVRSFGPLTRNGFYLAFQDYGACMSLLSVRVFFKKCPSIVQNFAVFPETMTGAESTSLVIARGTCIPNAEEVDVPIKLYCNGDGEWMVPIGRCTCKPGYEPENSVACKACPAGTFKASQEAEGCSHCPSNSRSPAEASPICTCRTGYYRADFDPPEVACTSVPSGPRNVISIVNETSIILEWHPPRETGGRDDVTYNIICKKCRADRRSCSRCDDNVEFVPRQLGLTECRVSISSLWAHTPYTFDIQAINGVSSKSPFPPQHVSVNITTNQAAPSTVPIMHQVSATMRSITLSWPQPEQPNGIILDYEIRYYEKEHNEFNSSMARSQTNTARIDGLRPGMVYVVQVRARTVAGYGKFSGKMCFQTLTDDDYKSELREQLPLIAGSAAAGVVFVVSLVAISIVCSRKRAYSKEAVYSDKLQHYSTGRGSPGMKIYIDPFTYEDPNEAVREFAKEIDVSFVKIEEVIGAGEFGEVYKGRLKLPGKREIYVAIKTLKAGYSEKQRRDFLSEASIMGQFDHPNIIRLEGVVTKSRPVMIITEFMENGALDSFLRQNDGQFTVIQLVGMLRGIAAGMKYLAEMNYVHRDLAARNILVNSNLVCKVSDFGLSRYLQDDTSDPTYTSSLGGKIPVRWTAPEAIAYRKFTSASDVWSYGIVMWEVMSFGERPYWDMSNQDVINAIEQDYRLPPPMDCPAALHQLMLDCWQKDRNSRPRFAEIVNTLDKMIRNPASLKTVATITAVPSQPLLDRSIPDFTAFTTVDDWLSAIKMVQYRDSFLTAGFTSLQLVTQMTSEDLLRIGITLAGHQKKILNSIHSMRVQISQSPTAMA
Fyn, sequence (P06241 whole entry, looked up): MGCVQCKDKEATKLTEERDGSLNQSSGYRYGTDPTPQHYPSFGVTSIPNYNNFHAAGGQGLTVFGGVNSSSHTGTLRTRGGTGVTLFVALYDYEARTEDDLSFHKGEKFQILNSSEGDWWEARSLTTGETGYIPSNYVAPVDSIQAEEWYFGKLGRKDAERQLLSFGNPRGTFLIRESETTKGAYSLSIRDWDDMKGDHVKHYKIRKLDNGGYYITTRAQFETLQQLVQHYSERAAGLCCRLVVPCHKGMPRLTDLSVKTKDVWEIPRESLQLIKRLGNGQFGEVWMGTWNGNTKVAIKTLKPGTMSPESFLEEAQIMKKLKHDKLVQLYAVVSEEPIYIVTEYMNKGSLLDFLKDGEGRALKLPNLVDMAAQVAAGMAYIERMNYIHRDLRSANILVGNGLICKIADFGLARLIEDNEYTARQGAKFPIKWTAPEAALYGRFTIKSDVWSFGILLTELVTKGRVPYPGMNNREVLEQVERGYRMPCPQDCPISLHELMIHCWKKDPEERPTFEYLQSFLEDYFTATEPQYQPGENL

Sequence	SH2 binding enrichment (c-Src SH2)	SH2 binding enrichment (SHP2-C SH2)	SH2 binding enrichment (Grb2 SH2)	phosphorylation enrichment (Fyn)	phosphorylation enrichment (c-Src)	phosphorylation enrichment (MERTK)	phosphorylation enrichment (Fes)	phosphorylation enrichment (Jak2)	phosphorylation enrichment (c-Abl (mouse))	phosphorylation enrichment (EPHB2)	phosphorylation enrichment (FGFR3)	phosphorylation enrichment (FGFR1)	phosphorylation enrichment (Hck)	phosphorylation enrichment (Fer (mouse))	phosphorylation enrichment (AncSZ)	phosphorylation enrichment (EPHB1)
INPIIYAFVGG [CCR5_Y297_E302G]	0.491	0.57	0.746	6.26	5.05	8.42	2.1	1.55	14.4	9.68	3.51	4.39	6.35	6.66	1.14	11.5
GDFLSYREFHL [ERBIN_Y1107_S1112L_YF]	0.556	0.845	0.786	0.467	0.543	0.423	0.956	0.824	0.805	0.527	0.792	0.501	0.653	0.737	0.915	0.599
LSERGYSFVTT [ACTA2_Y200_T196S]	8.52	5.26	0.806	0.81	0.693	0.986	1.41	1.08	0.925	0.704	1.46	0.955	0.724	1.06	1.29	0.94
VKMLPYTEVTR [GDI1_Y93_L92P]	2.9	0.863	0.988	0.368	0.4	0.494	0.717	0.573	0.492	0.431	0.49	0.416	0.45	0.282	0.555	0.437
EDGFAYVPLKD [PRIM2_Y208]	0.55	0.563	0.992	0.479	0.523	0.42	1.27	1.18	0.86	0.649	0.759	0.501	0.519	0.492	1.25	0.567

Second part, led by results:

SH2 binding enrichment (c-Src SH2)	SH2 binding enrichment (SHP2-C SH2)	SH2 binding enrichment (Grb2 SH2)	Sequence	phosphorylation enrichment (Fyn)	phosphorylation enrichment (c-Src)	phosphorylation enrichment (MERTK)	phosphorylation enrichment (Fes)	phosphorylation enrichment (Jak2)	phosphorylation enrichment (c-Abl (mouse))	phosphorylation enrichment (EPHB2)	phosphorylation enrichment (FGFR3)	phosphorylation enrichment (FGFR1)	phosphorylation enrichment (Hck)	phosphorylation enrichment (Fer (mouse))	phosphorylation enrichment (AncSZ)	phosphorylation enrichment (EPHB1)
0.813	0.522	1.32	EEQKRYYNAMK [SCN5A_Y1494_K1493R]	0.471	0.327	0.351	0.648	0.479	0.352	0.49	0.48	0.511	0.46	0.436	0.623	0.512
0.688	0.411	0.754	SNVEQYQAMVT [TPR_Y965]	0.506	0.384	0.355	0.692	0.846	0.487	0.444	0.541	0.416	0.424	0.457	0.754	0.443
1.13	1.18	2	DSFSSYCNAVA [SLC20A2_Y436_YF]	0.509	0.579	0.503	1.11	1.06	0.801	0.826	0.812	0.497	0.544	0.608	1.24	0.642
